# Assay: yeast display, Sf9 membrane polyspecificity reagent, FACS + sequencing; frameworks hold sequencing errors
# Outline: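 Sorting gates, low and high (top ~1%), were placed on anti-HA fluorescence to track expression and on streptavidin fluorescence to track reagent binding. A clone's polyreactivity label is taken from the gate it came out of. The reagent was 10% biotinylated, detergent-solubilized Sf9 membrane, applied for 1 hour at 4 °C to galactose-induced yeast display cells.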
row,Sequence,polyreactivity (PSR sort gate)
1,QVQLVVSGGGLVQAGGSLRLSCAASGSTFSLNAMGWYRQAPGKERELVAVITRGTSTYYADSVKGRFTISRDNAKNTVYLQMNRLTPEDNAVYYCAAAVWWSVVWAARYGYWGQGTQVTVSS,low polyreactivity
2,QVQLVESGGGLVQAGGSLRLSCAASGRTFGYYAMGWYRQAPGKERELVAALSTSGGSTHYADSVKGRFTISRDNAKNTVSLQMNSLKPEDTAVYYCNARLRTGTPYKYVSYNSWGQGTQVTVSS,high polyreactivity
3,QVQLEESGGGLVQAGGSLRLAVLPPDLPSTLNDMGWYRQAPGKERELVAAITRGGSTNYADSVKGRFTISRDNAKNTVYLQMNSLKPEDTAVYYCAAPYAGWRDGGDYWGQGTQVTVSS,low polyreactivity
4,QVQLVESGGGLVQAGGSLRLSCAASGFIFRRYAMGWYRQAPGKERELVAAISGRGASTYYGDSVKGRFTISRDNAKNNVYVQMNSLKPEDTAAYYCNAVPDNLNYDYWGQGTQVTVSS,high polyreactivity
5,QVQLVESGGGLVQAGGSLRLSCDASGFIFYSYAMGWYRQAPGKERELVAGITSGGITSYADSVKGRFTISRDNAKNTVYLQMNSLKPEDTAVYYCAKDVRSYRISVYGVGYWGQGTQVTVSS,high polyreactivity
6,QVQHVESGGGLVQAGGSLRLSCAASGITFYRYAMGWYIQAPGKERELVAAINASGGSTYYADSVKGRFTISRDKAKNTVYLQMNSLKPEDTAVYYCAADRVSWVKHYYWGQGTKVTVSS,high polyreactivity
7,QVQLVESGGGLVQAGGSLRLSCAASGRIFDKYAMGWYRQAPGKERELVAAITRSGGRTYYADSVKGRFTISRDNAKNTVYLQMNSLKPEDTAVYYCAARYVSRFDWGQGTQVTVSS,high polyreactivity
8,QVQLVESGGGLVQAGGSLRLSCDASGSTFSYYTMGWYRQAPGKERELVAAITGSGGRTYYADSVKGRFTISRDNAKNTVYLQMNSLKPEDSAVYYCAARLYTAADHYNYWGQGTQVTVSS,high polyreactivity
9,QDQLVESGGGLVQAGGSLRISCAASGSTFPLYAMGWYRQAPGKEMEFVAAIRWIGGSTYYADSVKGRFTISRDNAMNTVYLQMNSLKPEDTAVYYCAADYVVSAFDYWGQGTQVTVSS,low polyreactivity
10,QVLLVESGGGLVQAGGSLRLSCAASGRIFNAYAMGWYRQAPGKERELVAAISRSGGRTYYADSVKGRFTISRDNAKITVYLQMNSLKPEDTAVYYCAADAWSEQYPKYYYWGQGTQVTVSS,low polyreactivity
11,QVQLVESGGGLVQAGGSLRLSCAASGIIFDYYAMGLYRHAPGKEMELVASISWSGGGTYYADSVKGRFTISRDNAKNTVYLQMNSLKPEDTAVYYCNAGDHFVHWPHVKHKKFDYWGQGTQVTVSS,low polyreactivity
12,QVQLVESGGGLVQAGGSLRLSCAASGRTFWYYAMGWYRPAPGKERELVATITGGARTTYADSVKGRFTISRDNAKNTVYLQMNSLKPEDTAVYYCARARNSVKRGYYYWGQGTQVTVSS,high polyreactivity
13,QVQLVESGGGLVQAGGSLRLSCAASGFTFPNYAMGWYRQAPGKERELVAAISRRGGRTYYADSVKGRFTISRDNAKNTVYLQMNSLKPEDTAVYYCATEYRGDGPKYDYWGQGTQVTVSS,high polyreactivity
14,QVQLVESGGGLVQAGGSLRLSCAASGSIFVVYAMGWYRQAPGKERELVAVITDDGSTYYADSVKGRFTISRDNAKNTVYLQMNSLKPEDTAVYYCAAEGAATPDFGSWYYYWGQGTQVTVSS,low polyreactivity
15,QVQLVESGGGLVQAGGSLRLSCAASGSTFYRYPMGWYRQAPGKERELVAGITGSGRRTYYADSVKGRFTISRDNAKNTVYFQMNSVKPEDTAVYYCNKRRASWSPAGGTYNYWGQGTQVTVSS,low polyreactivity
16,QFQLVESGGGLVQAGGSLRLSCAASGSIFLSNAMGWYRQAPGKERELVADIDWTGGDTYYADSVKGRFRISRDNAKNTVYLQMNSLKREDTAVYYCAADYGYRNLRTEYGYWGQGTQVTVSS,low polyreactivity

row,Sequence,polyreactivity (PSR sort gate)
1,QVQLVESGAGLVQAGGSLRLSCAASGRTIRSYAMGWYRQATGKERELVAAISSGGRTYYADSVKGRFTISRDNAKNNVYLQMNSLKPEDTAVYYCAVRYRVYIFQYGYWGQGTQVTVSS,high polyreactivity
2,QVQLVESGGGLVQAGGSLRLSCAASGSIFHYNAMGWSRQAPGKERELVAAISRGGSTHYADSVKGRFTISRDNAKNTVYLQMNSLKPEDTAVYYCATVQVVGPWSYRKLDYCGQGTQVTVSS,high polyreactivity
3,QVQLEESGGGLVQAGGSLRLSCAASGRTFYSSAMGWYRQPPGKERQLVAAITISGGRTFYADSVKGRSTISRDNAKNTVYLQMNSLKPEDTAVYYCATDTYEPFHFEDDYWGQGTQVTVST,low polyreactivity
4,QVQLVESGGGLVQAGGSLRLSCAASGRIFKWNAMGWYRQAPGKERELVAAISTSGGNTYYADSVKGRFTISRDYAKNTVYLQMNSLKPEDTAVYYCAATYPNSLRQVGYWGQGTQVTVSS,high polyreactivity
5,QVQLVESGGGLVQAGGSLRLSCAPCGIIFTDYAMGWYRQAPGKERELVAAISSGGGSTYYADSVKGRFTISRDNAKNTVYLQMNSLKPEDTAVYYCNARSPYYSYLLHAYRVFDYWGQGTQVNVSS,high polyreactivity
6,QVQLLESGGGLVQAGGSRRLSCASSGITFAFYAMGWYRQAPGKESELVAAISWSGTRTYYADSVKGRFTISRDNAKNTVYLQMNRLKPEDTAVYYCAAVYQAGDKLYDYWGQGTQVTVSS,low polyreactivity
7,QVQLVESGGGLLQAGGSLRLSCAASGRIFGQYAMGWYRQAPGKEREFVAGISTTGGSTYYADSVKGRFTISRDNAKNTVYLQMNSLKPEDTAVYYCAVRINWSRWYHYYTYNYWGQGTQVTGSS,high polyreactivity
8,QVQLVESGVGLVQAGGSLRLSCAASGVTFYQYAMGWYRQAPGKERELVAAITRRGGSTSYADSVKGRFTISRDNAKNHVFLKMTRLIPEDTSVYYCNALYGSAFATQVESDYWGQGTQVNVSS,high polyreactivity
9,QVQLVESGGGLVQAGGSLRLSCAASGSTFGKYAMGWYRQAPGKERELVAAISKSGGSTYYADSVKGRFTISRDNAKNTVYLQMNSLKPEDTAVYYCAADVTYGTKWAYDYWGQGTQVTVSS,high polyreactivity
10,QVQLVESGGGLVQAGGSLRLSCAASGGIFIGYAMGWYRQAPGKERELVAAISYSGGSTYYADSVKGRFTISRDNAKNTVYLQMNSLKPEDTAVYYCAAQVDRKYRWFNSWGQGTQVTVSS,high polyreactivity
11,QVQLVESGGGLVQAGGSLRLSCAASGSTYYTYAMGWYRQAPGKERELVAAIRGRGGRTYYADSVKGRFTISRDNAKNTVYLQMNSLKPEDTAVYYCNADGYAYYRATTRFDYWGQGTQVTVSS,high polyreactivity
12,QVQLVESGGGLVQAGGSLRLSCAASGRTFVGYAMGWYRQSPGKERELVAAISTSGGRTYYADSVKGRFTISRDNAKYTVYLQMNSLKPEDTAVYYCAAGFRASIGYVTEYYWGQGTQVTVTS,high polyreactivity
13,QVQLVESGGGLVQAGGSLRLSCAASGSIFYANAMGWYRQAPWKEREFVAAISSSGGGTSYADSVKGRFTISRDNAKNTVYLQMNSLKPEDTAVYYFAARVTYGGIPARQIYDYWGQGTQVTVSS,low polyreactivity
14,QVQLVESGGGLVQAGGSLRLSCAASGFIFNNYAMGWYRQAPGKERELVAAITWSGGGTYYADSVKGRFTISRDNAKNTVYLQMTSLKAEDTAVYYCAVYYPAYRDEYWGQGTQVTVSS,high polyreactivity
15,QVQLVESGGGLVQAGGSLRLSCAASGFNIASYDMGWYRQAPGKERELVAAISKGGGRTYYADSVKGRFTISRDIAKNTVYLQMNSLKPEDTAVDYCAAEYRGYLHYHFQYLFDYWGQGTQVNVSS,low polyreactivity

# — the nanobody polyreactivity screen of Harvey et al. (2022)
